Legend:
[1] = biological target: SARS-CoV-2 nucleocapsid (N) protein, N-FL (SARS-CoV-2 (reference sequence; isolate …, UniProt P0DTC9); assay: SPR
SARS-CoV N protein = SARS-CoV N protein (SARS-CoV (strain ; reference …, UniProt P59595); assay: SPR

B1: mAb nCoV396 (antibody, V domains shown)
VH: QVQLVESGGGVVQPGRSLRLSCAASGFTFSSYIMHWVRQAPGKGLEWVAVISYDGSNEAYADSVKGRFTISRDNSKNTLYLQMSSLRAEDTGVYYCARETGDYSSSWYDSWGRGTLVTVSS
VL: QLVLTQSPSASASLGASVKLTCTLSSGHSNYAIAWHQQQPEKGPRYLMKVNSDGSHTKGDGIPDRFSGSSSGAERYLTISSLQSEDEADYYCQTWGTGIQVFGGGTKLTVL
Kd [1]: 1.02 nM
Kd (SARS-CoV N protein): 7.4 nM
